Series [1] can be described thus: circular dichroism. The conditions noted are these: 10 mM phosphate; pH 7.5; 25 °C; 50 uM. For orientation: Circular dichroism is the unequal absorption of left and right circularly polarised light.
In series [2] the test system is rHRSV-mCherry in HEp-2 cells. The experiment in a line: rHRSV-mCherry inhibition assay. It is filed as cell-based, human respiratory syncytial virus. The settings on record: Table 3 (Ala scan); HEp-2 cells, rHRSV-mCherry MOI 0.2, 2-fold serial dilutions (11 dilutions), duplicate; ± SD of fit. As to the method:
To measure the inhibitory activity of the peptide, the mCherry red fluorescence was quantified 48 h postinfection (p.i.).
Viral replication was quantified by measuring the mCherry fluorescence at 48 h p.i. and normalized based on the fluorescence of infected and untreated cells. (B) Cytotoxicity assay. HEp-2 cells were incubated in the presence of serial dilutions of peptides, and cell survival was quantified using the CellTiter-Glo Luminescent cell viability assay 24 h after the addition of the peptides. The signal was normalized based on the luminescence obtained for untreated cells. Error bars are standard deviations from duplicates.
HEp-2 cells were seeded at 5 × 10^4 cells per well in a 96-well plate the day before the infection. Peptides were 2-fold serially diluted in dimethyl sulfoxide (DMSO) (11 dilutions) and then further diluted in EMEM without phenol red and preincubated for 15 to 20 min with rHRSV-mCherry ([24]) at a final dilution with an MOI of 0.2 ([24]). The cells were incubated with the virus-peptide mixtures for a period of 1.5 to 2 h. The medium was then replaced by EMEM without phenol red containing 2% fetal bovine serum and the same concentration of peptide as the one that was used during the infection step. Plates were incubated 48 h at 37°C, and the mCherry fluorescence was measured using a spectrofluorometer (Tecan infinite M200PRO) with excitation and emission wavelengths of 580 and 620 nm, respectively. Relative fluorescence was normalized by the fluorescence of nontreated infected cells. Noninfected HEp-2 cells were used as standards for fluorescence background levels. Each experiment was performed in duplicate and repeated at least twice. The resulting inhibition curves were fitted in Igor Pro as described above.

Bridge positions count the residues as written; N and C are the ends. Square brackets hold non-standard residues; d marks the D form. Peptide text beside a SMILES is read from it. R8 = C=CCCCCCC[C@@](C)(N)C(=O)O; R5 = C=CCCC[C@@](C)(N)C(=O)O; S5 = C=CCCC[C@](C)(N)C(=O)O

`CC[C@H](C)[C@H](NC(=O)[C@H](Cc1ccccc1)NC(=O)[C@]1(C)CCCC=CCCC[C@](C)(NC(=O)[C@@H](NC(=O)[C@H](CCCCN)NC(=O)[C@H](CCC(=O)O)NC(C)=O)[C@@H](C)CC)C(=O)N[C@@H](CCC(N)=O)C(=O)N[C@@H](CO)C(=O)N[C@@H](CC(C)C)C(=O)N1)C(=O)N[C@@H](CCCNC(=N)N)C(=O)N[C@]1(C)CCCCCCC=CCCC[C@@](C)(C(=O)N[C@H](C(N)=O)C(C)C)NC(=O)[C@H](Cc2c[nH]cn2)NC(=O)[C@H](CC(C)C)NC(=O)[C@H](CC(C)C)NC(=O)[C@H](CCC(=O)O)NC(=O)[C@H](CC(=O)O)NC(=O)[C@H](CO)NC1=O` [Peptide 4bf] (Ac-EKI[S5]QSL[S5]FIR[R8]SDELLH[S5]V-NH2; staple 4-8, 12-19): the helicity in series [1] was 88.9%. `CC[C@H](C)[C@H](NC(=O)[C@H](CCCCN)NC(=O)[C@H](CCC(=O)O)NC(C)=O)C(=O)N[C@@]1(C)CCCC=CCCC[C@@](C)(C(=O)N[C@@H](Cc2ccccc2)C(=O)N[C@H](C(=O)N[C@@]2(C)CCCC=CCCC[C@@](C)(C(=O)N[C@@H](CC(C)C)C(=O)N[C@@H](CC(C)C)C(=O)N[C@@H](Cc3c[nH]cn3)C(=O)N[C@@H](CC(N)=O)C(=O)N[C@H](C(N)=O)C(C)C)NC(=O)[C@H](C)NC(=O)[C@H](CO)NC(=O)[C@H](CCCCN)NC2=O)[C@@H](C)CC)NC(=O)[C@H](CC(C)C)NC(=O)[C@H](CO)NC(=O)[C@H](CCC(N)=O)NC1=O` [Peptide D510A] (Ac-EKI[S5]QSL[S5]FI[S5]KSA[S5]LLHNV-NH2; staple 4-8, 11-15): in series [1], the helicity was 44%. In addition, it took 1100 ± 80 nM to reach a half-maximal effect in series [2] (EC50). For the compound `CC[C@H](C)[C@H](NC(=O)[C@H](CCCCN)NC(=O)[C@H](C)NC(C)=O)C(=O)N[C@@]1(C)CCCC=CCCC[C@@](C)(C(=O)N[C@@H](Cc2ccccc2)C(=O)N[C@H](C(=O)N[C@@]2(C)CCCC=CCCC[C@@](C)(C(=O)N[C@@H](CC(C)C)C(=O)N[C@@H](CC(C)C)C(=O)N[C@@H](Cc3c[nH]cn3)C(=O)N[C@@H](CC(N)=O)C(=O)N[C@H](C(N)=O)C(C)C)NC(=O)[C@H](CC(=O)O)NC(=O)[C@H](CO)NC(=O)[C@H](CCCCN)NC2=O)[C@@H](C)CC)NC(=O)[C@H](CC(C)C)NC(=O)[C@H](CO)NC(=O)[C@H](CCC(N)=O)NC1=O` [Peptide E497A] (Ac-AKI[S5]QSL[S5]FI[S5]KSD[S5]LLHNV-NH2; staple 4-8, 11-15), the helicity in series [1] came out at 38%. A half-maximal response in series [2] (EC50) required 1160 ± 80 nM. The like results for `CC[C@H](C)[C@@H]1NC(=O)[C@H](Cc2ccccc2)NC(=O)[C@@](C)(NC(=O)[C@H](CC(C)C)NC(=O)[C@H](CO)NC(=O)[C@]2(C)CCCC=CCCC[C@@](C)(NC(=O)[C@H](CCC(=O)O)NC(C)=O)C(=O)N[C@@H]([C@@H](C)CC)C(=O)N[C@@H](CC(N)=O)C(=O)N2)CCCC=CCCC[C@@](C)(C(=O)N[C@@H](CO)C(=O)N[C@@H](CC(=O)O)C(=O)N[C@@H](C)C(=O)N[C@@H](CC(C)C)C(=O)N[C@@H](CC(C)C)C(=O)N[C@@H](Cc2c[nH]cn2)C(=O)N[C@@H](CC(N)=O)C(=O)N[C@H](C(N)=O)C(C)C)NC(=O)[C@H](CCCNC(=N)N)NC1=O` [Peptide E511A] (Ac-E[R5]IN[S5]SL[S5]FIR[S5]SDALLHNV-NH2; staple 2-5, 8-12) were, in that order, 73% and 1000 ± 30 nM.

In the case of `CC[C@H](C)[C@H](NC(=O)[C@H](C)NC(=O)[C@]1(C)CCCC=CCCC[C@](C)(NC(=O)[C@@H](NC(=O)[C@H](CCCCN)NC(=O)[C@H](CCC(=O)O)NC(C)=O)[C@@H](C)CC)C(=O)N[C@@H](CCC(N)=O)C(=O)N[C@@H](CO)C(=O)N[C@@H](CC(C)C)C(=O)N1)C(=O)N[C@@]1(C)CCCC=CCCC[C@@](C)(C(=O)N[C@@H](CC(C)C)C(=O)N[C@@H](CC(C)C)C(=O)N[C@@H](Cc2c[nH]cn2)C(=O)N[C@@H](CC(N)=O)C(=O)N[C@H](C(N)=O)C(C)C)NC(=O)[C@H](CC(=O)O)NC(=O)[C@H](CO)NC(=O)[C@H](CCCCN)NC1=O` [Peptide F505A] (Ac-EKI[S5]QSL[S5]AI[S5]KSD[S5]LLHNV-NH2; staple 4-8, 11-15), the helicity in series [1] was 64%. Further, in series [2], a half-maximal effect (EC50) was put at 1390 ± 100 nM.

`CC[C@H](C)[C@H](NC(=O)[C@H](CCCCN)NC(=O)[C@H](CCC(=O)O)NC(C)=O)C(=O)N[C@@]1(C)CCCC=CCCC[C@@](C)(C(=O)N[C@@H](Cc2ccccc2)C(=O)N[C@H](C(=O)N[C@@]2(C)CCCC=CCCC[C@@](C)(C(=O)N[C@@H](CC(C)C)C(=O)N[C@@H](CC(C)C)C(=O)N[C@@H](C)C(=O)N[C@@H](CC(N)=O)C(=O)N[C@H](C(N)=O)C(C)C)NC(=O)[C@H](CC(=O)O)NC(=O)[C@H](CO)NC(=O)[C@H](CCCCN)NC2=O)[C@@H](C)CC)NC(=O)[C@H](CC(C)C)NC(=O)[C@H](CO)NC(=O)[C@H](CCC(N)=O)NC1=O` [Peptide H514A] (Ac-EKI[S5]QSL[S5]FI[S5]KSD[S5]LLANV-NH2; staple 4-8, 11-15) came in with a helicity in series [1] of 55%. For the same compound, a half-maximal response in series [2] (EC50) required 520 ± 70 nM. In turn, `CC[C@H](C)[C@H](NC(=O)[C@H](Cc1ccccc1)NC(=O)[C@]1(C)CCCC=CCCC[C@](C)(NC(=O)[C@H](C)NC(=O)[C@H](CCCCN)NC(=O)[C@H](CCC(=O)O)NC(C)=O)C(=O)N[C@@H](CCC(N)=O)C(=O)N[C@@H](CO)C(=O)N[C@@H](CC(C)C)C(=O)N1)C(=O)N[C@@]1(C)CCCC=CCCC[C@@](C)(C(=O)N[C@@H](CC(C)C)C(=O)N[C@@H](CC(C)C)C(=O)N[C@@H](Cc2c[nH]cn2)C(=O)N[C@@H](CC(N)=O)C(=O)N[C@H](C(N)=O)C(C)C)NC(=O)[C@H](CC(=O)O)NC(=O)[C@H](CO)NC(=O)[C@H](CCCCN)NC1=O` [Peptide I499A] (Ac-EKA[S5]QSL[S5]FI[S5]KSD[S5]LLHNV-NH2; staple 4-8, 11-15) showed a helicity in series [1] of 24%. Also, the EC50 (in general, the concentration at which the effect is half-maximal) in series [2] was determined as 1300 ± 890 nM. Taken in the same sequence, the figures for `CC[C@H](C)[C@H](NC(=O)[C@H](C)NC(=O)[C@H](CCC(=O)O)NC(C)=O)C(=O)N[C@@]1(C)CCCC=CCCC[C@@](C)(C(=O)N[C@@H](Cc2ccccc2)C(=O)N[C@H](C(=O)N[C@@]2(C)CCCC=CCCC[C@@](C)(C(=O)N[C@@H](CC(C)C)C(=O)N[C@@H](CC(C)C)C(=O)N[C@@H](Cc3c[nH]cn3)C(=O)N[C@@H](CC(N)=O)C(=O)N[C@H](C(N)=O)C(C)C)NC(=O)[C@H](CC(=O)O)NC(=O)[C@H](CO)NC(=O)[C@H](CCCCN)NC2=O)[C@@H](C)CC)NC(=O)[C@H](CC(C)C)NC(=O)[C@H](CO)NC(=O)[C@H](CCC(N)=O)NC1=O` [Peptide K498A] (Ac-EAI[S5]QSL[S5]FI[S5]KSD[S5]LLHNV-NH2; staple 4-8, 11-15) were 42% and 600 ± 20 nM. The compound `CC[C@H](C)[C@H](NC(=O)[C@H](CCCCN)NC(=O)[C@H](CCC(=O)O)NC(C)=O)C(=O)N[C@@]1(C)CCCC=CCCC[C@@](C)(C(=O)N[C@@H](Cc2ccccc2)C(=O)N[C@H](C(=O)N[C@@]2(C)CCCC=CCCC[C@@](C)(C(=O)N[C@@H](CC(C)C)C(=O)N[C@@H](CC(C)C)C(=O)N[C@@H](Cc3c[nH]cn3)C(=O)N[C@@H](CC(N)=O)C(=O)N[C@H](C(N)=O)C(C)C)NC(=O)[C@H](CC(=O)O)NC(=O)[C@H](CO)NC(=O)[C@H](CCCCN)NC2=O)[C@@H](C)CC)NC(=O)[C@H](C)NC(=O)[C@H](CO)NC(=O)[C@H](CCC(N)=O)NC1=O` [Peptide L503A] (Ac-EKI[S5]QSA[S5]FI[S5]KSD[S5]LLHNV-NH2; staple 4-8, 11-15) showed a helicity in series [1] of 38%. Further, it took 950 ± 530 nM to reach a half-maximal effect in series [2] (EC50).

Take `CC[C@H](C)[C@H](NC(=O)[C@H](CCCCN)NC(=O)[C@H](CCC(=O)O)NC(C)=O)C(=O)N[C@@]1(C)CCCC=CCCC[C@@](C)(C(=O)N[C@@H](Cc2ccccc2)C(=O)N[C@H](C(=O)N[C@@]2(C)CCCC=CCCC[C@@](C)(C(=O)N[C@@H](C)C(=O)N[C@@H](CC(C)C)C(=O)N[C@@H](Cc3c[nH]cn3)C(=O)N[C@@H](CC(N)=O)C(=O)N[C@H](C(N)=O)C(C)C)NC(=O)[C@H](CC(=O)O)NC(=O)[C@H](CO)NC(=O)[C@H](CCCCN)NC2=O)[C@@H](C)CC)NC(=O)[C@H](CC(C)C)NC(=O)[C@H](CO)NC(=O)[C@H](CCC(N)=O)NC1=O` [Peptide L512A] (Ac-EKI[S5]QSL[S5]FI[S5]KSD[S5]ALHNV-NH2; staple 4-8, 11-15): the helicity in series [1] was 45%. Besides, the midpoint of the response in series [2], the EC50, lay at 880 ± 60 nM. Taken in the same sequence, the figures for `CC[C@H](C)[C@H](NC(=O)[C@H](CCCCN)NC(=O)[C@H](CCC(=O)O)NC(C)=O)C(=O)N[C@@H](C)C(=O)N[C@@H](CCC(N)=O)C(=O)N[C@@H](CO)C(=O)N[C@@H](CC(C)C)C(=O)N[C@@]1(C)CCCC=CCCC[C@@](C)(C(=O)N[C@@H](CO)C(=O)N[C@@H](CC(=O)O)C(=O)N[C@@]2(C)CCCC=CCCC[C@@](C)(C(=O)N[C@H](C(N)=O)C(C)C)NC(=O)[C@H](Cc3c[nH]cn3)NC(=O)[C@H](CC(C)C)NC(=O)[C@H](CC(C)C)NC2=O)NC(=O)[C@H](CCCNC(=N)N)NC(=O)[C@H]([C@@H](C)CC)NC(=O)[C@H](Cc2ccccc2)NC1=O` [Peptide N500A] (Ac-EKIAQSL[S5]FIR[S5]SD[S5]LLH[S5]V-NH2; staple 8-12, 15-19) were 60% and 20400 ± 2400 nM.

The record behind these values is publication PMC5365662, “A Short Double-Stapled Peptide Inhibits Respiratory Syncytial Virus Entry and Spreading” (Antimicrobial Agents and Chemotherapy, 2017).
